Source: paper doi:10.1101/2024.11.03.621741 (bioRxiv, 2024)
Numbering of substitutions follows the chain as printed. In names and notes the source's numbering stands.

B1: RAD51 (wild type, recombinant) (natural protein)
chain: MAMQMQLEANADTSVEEESFGPQPISRLEQCGINANDVKKLEEAGFHTVEAVAYAPKKELINIKGISEAKADKILAEAAKLVPMGFTTATEFHQRRSEIIQITTGSKELDKLLQGGIETGSITEMFGEFRTGKTQICHTLAVTCQLPIDRGGGEGKAMYIDTEGTFRPERLLAVAERYGLSGSDVLDNVAYARAFNTDHQTQLLYQASAMMVESRYALLIVDSATALYRTDYSGRGELSARQMHLARFLRMLLRLADEFGVAVVITNQVVAQVDGAAMFAADPKKPIGGNIIAHASTTRLYLRKGRGETRICKIYDSPCLPEAEAMFAINADGVGDAKD
B2: RAD51-K133R (natural protein)
chain: B1 chain with K133R
B3: GST-FIGNL1-dNLS (domain or fragment)
chain: AGKKFKDSLLEPALASVVIHKEATVFDLPKFSVCGSSQESDSLPNSAHDRDRTQDFPESNRLKLLQNAQPPMVTNTARTCPTFSAPVGESATAKFHVTPLFGNVKKENHSSAKENIGLNVFLSNQSCFPAACENPQRKSFYGSGTIDALSNPILNKACSKTEDNGPKEDSSLPTFKTAKEQLWVDQQKKYHQPQRASGSSYGGVKKSLGASRSRGILGKFVPPIPKQDGGEQNGGMQCKPYGAGPTEPAHPVDERLKNLEPKMIELIMNEIMDHGPPVNWEDIAGVEFAKATIKEIVVWPMLRPDIFTGLRGPPKGILLFGPPGTGKTLIGKCIASQSGATFFSISASSLTSKWVGEGEKMVRALFAVARCQQPAVIFIDEIDSLLSQRGDGEHESSRRIKTEFLVQLDGATTSSEDRILVVGATNRPQEIDEAARRRLVKRLYIPLPEASARKQIVINLMSKEQCCLSEEEIEQIVQQSDAFSGADMTQLCREASLGPIRSLQTADIATITPDQVRPIAYIDFENAFRTVRPSVSPKDLELYENWNKTFGCGK

How the values were obtained:
GST-FIGNL1-dNLS = target: B3; assay: pull-down
[1] = target: MMS22L-TONSL complex (recombinant, purified) (human, UniProt Q6ZRQ5;Q96HA7); assay: pull-down
Sequence of MMS22L-TONSL complex (recombinant, purified) (Q6ZRQ5 whole entry, chain 1 of 2): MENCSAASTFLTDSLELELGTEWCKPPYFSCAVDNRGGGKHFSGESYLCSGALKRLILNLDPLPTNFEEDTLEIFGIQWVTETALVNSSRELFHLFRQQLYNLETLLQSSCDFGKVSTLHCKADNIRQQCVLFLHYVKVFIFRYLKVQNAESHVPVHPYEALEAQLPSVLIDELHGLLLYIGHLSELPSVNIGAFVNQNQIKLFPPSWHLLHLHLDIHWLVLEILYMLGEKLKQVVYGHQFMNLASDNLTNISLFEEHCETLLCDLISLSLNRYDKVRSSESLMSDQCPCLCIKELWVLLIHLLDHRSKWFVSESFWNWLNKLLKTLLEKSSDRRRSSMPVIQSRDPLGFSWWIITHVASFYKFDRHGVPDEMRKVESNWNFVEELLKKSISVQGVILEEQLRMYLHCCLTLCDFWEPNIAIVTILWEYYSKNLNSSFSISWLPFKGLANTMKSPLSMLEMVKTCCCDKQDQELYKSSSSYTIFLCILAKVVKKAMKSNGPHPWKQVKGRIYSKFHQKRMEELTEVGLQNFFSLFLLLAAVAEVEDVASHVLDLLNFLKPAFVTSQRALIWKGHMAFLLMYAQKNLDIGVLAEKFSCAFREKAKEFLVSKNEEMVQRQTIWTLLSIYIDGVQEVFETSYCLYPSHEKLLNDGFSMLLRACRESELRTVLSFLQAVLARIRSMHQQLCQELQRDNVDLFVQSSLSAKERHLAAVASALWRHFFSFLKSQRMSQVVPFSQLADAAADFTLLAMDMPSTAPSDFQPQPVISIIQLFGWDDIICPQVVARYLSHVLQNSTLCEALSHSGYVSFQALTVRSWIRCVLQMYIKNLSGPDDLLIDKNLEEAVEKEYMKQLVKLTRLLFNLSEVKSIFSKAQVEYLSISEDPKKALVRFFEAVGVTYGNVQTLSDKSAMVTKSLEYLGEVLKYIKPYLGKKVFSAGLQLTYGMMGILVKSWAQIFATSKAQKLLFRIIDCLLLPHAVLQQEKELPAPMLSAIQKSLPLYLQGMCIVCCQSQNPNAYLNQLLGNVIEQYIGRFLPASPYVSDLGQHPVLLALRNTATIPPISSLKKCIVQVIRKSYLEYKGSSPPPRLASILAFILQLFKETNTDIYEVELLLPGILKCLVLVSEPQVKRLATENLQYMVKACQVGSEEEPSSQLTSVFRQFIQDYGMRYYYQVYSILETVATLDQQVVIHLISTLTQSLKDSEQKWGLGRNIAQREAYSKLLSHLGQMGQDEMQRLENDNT
Sequence of MMS22L-TONSL complex (recombinant, purified) (Q96HA7 whole entry, chain 2 of 2): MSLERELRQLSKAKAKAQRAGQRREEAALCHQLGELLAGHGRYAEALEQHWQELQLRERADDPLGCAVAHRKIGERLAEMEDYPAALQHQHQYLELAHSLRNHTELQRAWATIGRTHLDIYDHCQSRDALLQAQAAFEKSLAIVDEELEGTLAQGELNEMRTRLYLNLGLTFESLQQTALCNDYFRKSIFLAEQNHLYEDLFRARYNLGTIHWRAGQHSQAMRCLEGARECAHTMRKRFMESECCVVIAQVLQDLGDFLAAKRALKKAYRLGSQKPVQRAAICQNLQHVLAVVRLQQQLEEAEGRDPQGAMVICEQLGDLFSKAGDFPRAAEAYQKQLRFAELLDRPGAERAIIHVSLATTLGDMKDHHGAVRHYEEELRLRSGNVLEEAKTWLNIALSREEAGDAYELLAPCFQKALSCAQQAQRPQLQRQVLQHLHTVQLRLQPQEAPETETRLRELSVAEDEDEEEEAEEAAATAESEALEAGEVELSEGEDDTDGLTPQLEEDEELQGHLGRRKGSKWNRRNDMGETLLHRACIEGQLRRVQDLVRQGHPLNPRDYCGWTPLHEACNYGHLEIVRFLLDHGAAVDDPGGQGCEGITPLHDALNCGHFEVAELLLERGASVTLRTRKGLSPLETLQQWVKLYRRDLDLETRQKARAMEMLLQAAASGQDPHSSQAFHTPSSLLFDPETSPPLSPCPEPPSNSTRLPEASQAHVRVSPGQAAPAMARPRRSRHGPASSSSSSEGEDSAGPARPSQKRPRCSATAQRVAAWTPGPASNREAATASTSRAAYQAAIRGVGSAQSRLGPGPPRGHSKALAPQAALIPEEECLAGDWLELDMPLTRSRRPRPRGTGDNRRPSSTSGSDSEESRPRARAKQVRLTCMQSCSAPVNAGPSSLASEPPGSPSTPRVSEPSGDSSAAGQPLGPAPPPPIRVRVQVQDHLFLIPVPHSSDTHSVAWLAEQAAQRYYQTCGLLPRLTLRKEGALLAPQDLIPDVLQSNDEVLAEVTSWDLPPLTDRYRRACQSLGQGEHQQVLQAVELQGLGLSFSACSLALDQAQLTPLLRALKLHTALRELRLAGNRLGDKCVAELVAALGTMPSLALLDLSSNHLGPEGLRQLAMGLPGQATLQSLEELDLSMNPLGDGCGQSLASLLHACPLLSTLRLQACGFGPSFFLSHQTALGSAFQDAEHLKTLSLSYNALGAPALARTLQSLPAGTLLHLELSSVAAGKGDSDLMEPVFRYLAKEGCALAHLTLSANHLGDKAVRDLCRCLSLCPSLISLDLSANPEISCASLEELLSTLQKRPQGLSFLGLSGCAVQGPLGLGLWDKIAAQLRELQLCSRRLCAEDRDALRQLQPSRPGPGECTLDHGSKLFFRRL

Binder	binding result (GST-FIGNL1-dNLS)	binding result [1]
B1	binds	
B2	binds	
B3		binds
